Measured values published in article PMC7293229.

What was measured:
[1] = molecular target: GxtA; assay: crystal structure; GxtA crystallised anaerobically, hanging drop, 0.3 M MgCl2, 0.1 M Bis-Tris pH 5.5, 25% PEG3350, 15% glycerol, 20 °C; without and with 20 mM ddSTX; three molecules in the asymmetric unit
[2] = molecular target: SxtT; assay: crystal structure; SxtT crystallised anaerobically, hanging drop, 2.0 M (NH4)2SO4, 0.1 M Bis-Tris pH 6.5, 10% glycerol, 20 °C; without and with 20 mM ddSTX; three molecules in the asymmetric unit

| Substance | stoichiometry N [1] | stoichiometry N [2] |
| --- | --- | --- |
| GxtA (enzyme) | 3 | – |
| SxtT (enzyme) | – | 3 |
